Test results from patent US20090068110A1, “ANTIBODIES TO INSULIN-LIKE GROWTH FACTOR RECEPTOR” (Genentech, Inc., priority 2006, published 2009).

Key:
cynomolgus-monkey IGF-1R [1] = molecular target: cynomolgus-monkey IGF-1R (cynomolgus monkey, UniProt G7P9I7 31-908); experiment: BIACORE surface plasmon resonance: IGF-1R immobilized on CM5 chip (about 500 RU), IgG injected 250-0.78 nM, 25 C, 1:1 Langmuir model (apparent affinity)
cynomolgus-monkey IGF-1R [2] = experiment: BIACORE surface-plasmon resonance, cynomolgus-monkey IGF-1R; assay type: binding; conditions: IgG, FIG. 15
Experimental: Binding affinities of selected antibodies to IGF-1R were determined by surface plasmon resonance measurements on a BIACORE™ 3000 instrument (BIAcore, Inc.). Human, murine, or cynomolgus-monkey IGF-1R was immobilized at a density of about 500 RU on the flow cells of a PIONEER™ CM5 sensor chip. Immobilization was achieved by random coupling through amino groups using a protocol provided by the manufacturer. Sensorgrams were recorded for binding of anti-IGF-1R Fab or IgG to these surfaces by injection of a series of solutions ranging from 500 nM to 3.1 nM and 250 nM to 0.78 nM in two-fold increments, respectively. The signal from the reference cell was subtracted from the observed sensorgram. Kinetic constants were calculated by non-linear regression analysis of the data according to a 1:1 Languir binding model using software supplied by the manufacturer.

MCF7 cells = experiment: cell viability assay ([…]-GLO), MCF7; assay type: cell-based, human; conditions: in the presence of IGF-I
Experimental: The different cell lines were cultured in their respective culture media at 37° C. in a humidified atmosphere of 5% CO2. Subsequently, cells were detached from tissue-culture flasks using the cell-dissociation solution, TRIPLE SELECT™ solution (InVitrogen, Carlsbad, Calif., USA), and centrifuged at 1000 rpm for five minutes. Detached cells were washed once with PBS, counted, and seeded in 96-well plates (Corning, N.Y., USA) at 2000 cells per well in 100 μL of culture media. After an overnight incubation at 37° C. in a humidified atmosphere of 5% CO2, the cell-culture medium was replaced with 50 μL of starvation medium consisting of serum-free RPMI 1640™ medium without phenol red. The cells were then starved for five hours in the incubator before addition of 25 μL of each anti-IGF-1R monoclonal antibody at various dilutions in serum-free RPMI 1640™ phenol red-free media. Later, 25 μL of phenol red-free RPMI 1640™ media supplemented with 4% of fetal bovine serum (FBS) (Sigma) with or without 4 ng/ml of human recombinant IGF-I were added on top of the 50 μL of antibody. The cells were then placed at 37° C. with 5% CO2 for 5 to 6 days. At the end of the assay, cell viability was measured using the […]-GLO® kit according to the manufacturer's instructions (Promega, Madison, Wis., USA).
For the cell viability assay, MCF7 cells were seeded onto 96-well plates at 2000 cells/well and incubated overnight at 37° C. in a humidified atmosphere of 5% CO2/95% air in RPMI 1640™ medium supplemented with 10% FBS (Sigma, St. Louis, Mo.) and 1% GLUTAMAX™ reagent (Promega, Madison, Wis.). The next day cells were starved in serum-free RPMI 1640™ medium (phenol red-free) for five hours followed by addition of serially diluted human chimeric versions of 9F2, 2B4, and 10H5, as well as h10H5.vX, for one hour. Subsequently, phenol red-free PRMI 1640™ medium supplemented with FBS or IGF-I was added to reach a final concentration of 1% FBS and 1 ng/mL IGF-I. Cells were then incubated with continuous IGF-1R antibody exposure. After five days, the cell viability was then determined using a […]-GLO™ kit (Promega, Madison, Wis.) according to the manufacturer's instructions.

IGF-1R [3] = molecular target: T1, IGF-1R (Homo sapiens, UniProt P08069); experiment: antibody-induced IGF-1R down-regulation in MCF7 cells, Western blotting; assay type: cell-based; parameters: IGF-1R is normally localized at the plasma membrane of MCF7 cells; endogenous in cells; host or cells: MCF7; conditions: 10 μg/ml, 1, 4, 8 or 24 hours, 10% serum
Experimental: Further exploration of the mechanism of action of anti-IGF-1R antibodies was carried out by testing the ability of the antibodies of the invention, particularly human chimeric antibodies of 2B4, 9F2, 10H5, as well as human phage antibody YW95.6, to induce IGF-1R down-regulation. MCF7 cells were treated with various antibodies (10 μg/ml) for 1, 4, 8, or 24 hours in the presence of 10% serum-containing medium. The cell lysates were harvested, separated by SDS-PAGE, and analyzed for IGF-1R levels by Western blotting using an anti-IGF-1R beta-chain antibody (Cell Signaling Technology, Inc.; Beverly, Mass., USA) or anti-beta-actin antibody.
In a separate experiment, MCF7 cells were treated with serially diluted h10H5, and the cell lysates were analyzed for IGF-1R and IR levels using anti-IGF-1R and anti-IR β-chain antibodies at 1, 2, 4, and 8 hours post-continuous treatment.

human IGF-1R-ECD = molecular target: T2, human IGF-1R-ECD (Homo sapiens, UniProt P08069); experiment: competitive ELISA, blocking of IGF-I/II and IGF-1R interaction; assay type: binding; conditions: antibody 100 nM to 0.0976 nM, biotinyl-IGF-I or IGF-II 60 ng/ml
T2 construct: containing the extracellular domain (ECD, amino acids 1-902) tagged with 10 or 12 histidine residues at the carboxyl terminus; His10 or His12 (C); made in house; host or cells: CHO cells
Experimental: To determine whether the anti-IGF-1R antibodies could block ligand/receptor interaction, competitive ELISA was utilized. Human IGF-1R-ECD was coated overnight at 4° C. at 1 μg/ml in a 96-well immunoplate (Nalge Nunc International, Rochester, N.Y., USA). The ELISA plate was washed with wash buffer (PBS, 0.05% TWEEN™ 20 surfactant, pH 7.4), and 150 μl/well of blocking buffer (PBS with 0.5% BSA) was added for one hour at room temperature with gentle agitation. Purified anti-IGF-1R antibodies were first subjected to a two-fold dilution from 100 nM to 0.0976 nM in assay buffer (PBS, 0.5% BSA and 0.05% TWEEN™ 20 surfactant, pH 7.4) and added to the immunoplate to incubate at room temperature for one hour. Biothinyl-IGF-I or IGF-II at 60 ng/ml concentrations (Cell Science, Canton, Mass., USA) was then added and incubated for another 30 minutes. The ELISA plate was washed three times, and 100 μl/well of streptavidin-HRP (GE Healthcare, Piscataway, N.J., USA) at a dilution of 1:6,000 was added for 20 minutes. Color development was conducted as described in conjunction with the direct ELISA. The selected anti-IGF-1R antibodies inhibited IGF-I or IGF-II binding to IGF-1R to various degrees (FIGS. 19A and 19B for IGF-I and IGF-II, respectively).

IGF-1R [4] = molecular target: T1, IGF-1R; experiment: KIRA assay of IGF-1R phosphorylation in MCF7 cells; assay type: cell-based; parameters: IGF-1R is normally localized at the plasma membrane of MCF7 cells; endogenous in cells; host or cells: MCF7; conditions: IGF-I 10 ng/ml or IGF-II 50 ng/ml; ranking upon IGF-II stimulation
Experimental: Also examined was whether the blocking activity of these antibodies was sufficient to interfere with receptor activation, which is measured by IGF-1R phosphorylation. A KIRA assay (kinase receptor activation) was utilized to perform quantitative analysis of IGF-1R phosphorylation in MCF7 cells. Anti-IGF-1R antibodies in serial dilutions (0.19 to 200 nM in medium) were added to MCF7 cells in 96-well plates for one hour. IGF-I (10 ng/ml) or IGF-11 (50 ng/ml) was subsequently added and incubated for ten minutes. The cells were lysed, and the resulting lysates were transferred to an ELISA plate, which was coated with IGF-1R-capturing antibody 3B7 (250 ng/well). After incubation for two hours, the cell lysate was removed, and the plates were washed. Phosphotyrosine-specific antibody 4G10 (Upstate, Charlottesville, Va., USA) was added to detect IGF-1R phosphorylation through TMB peroxidase substrate.

[5] = test system: IGF-1R signaling (phospho-IGF-1R, AKT, ERK1/2); experiment: Western blotting of IGF-1R signaling in MCF7 cells; assay type: cell-based, human
Experimental: Also examined was the effect of these antibodies on ligand-dependent IGF-1R signaling by directly analyzing IGF-1R phosphorylation as well as major downstream pathways, such as AKT and MAPK activation. In this assay, MCF7 cells were grown in 6-well plates and serum was withdrawn for 16 hours. […] The cells were directly lysed in SDS sample buffer, and the lysate was analyzed by Western blotting using antibodies against IGF-1R, phospho-IGF-1R, AKT, phospho-AKT, ERK1/2, phospho-ERK1/2 (also called MAPK1/2 and phospho-MAPK1/2) (all from Cell Signaling Technology, Inc.; Beverly, Mass., USA).
For the IGF-1R signaling pathway analysis, MCF7 cells were grown in six-well plates for 24 hours and then serum starved (serum-free and phenol-free RPMI medium supplemented with 1 mg/mL BSA) overnight. The cells were first incubated with h10H5 for 20 minutes, then stimulated with 50 ng/mL IGF-1 or 100 ng/mL IGF-11 for ten minutes. Cells were directly lysed in SDS sample buffer to preserve protein phosphorylation. After brief sonication, the lysates were separated by SDS-PAGE and transferred to nitrocellulose membranes (Invitrogen; Carlsbad, Calif.), which were probed with anti-phospho-IGF-1R, AKT, and ERK1/2 antibodies. The same blots were then stripped using Stripping Buffer™ (Pierce Biotechnology; Rockford, Ill.) and re-probed with antibodies against total IGF-1R β, AKT, and ERK1/2.

cynomolgus-monkey IGF-1R (cynomolgus monkey, UniProt G7P9I7 31-908), sequence (G7P9I7 entry or part of it): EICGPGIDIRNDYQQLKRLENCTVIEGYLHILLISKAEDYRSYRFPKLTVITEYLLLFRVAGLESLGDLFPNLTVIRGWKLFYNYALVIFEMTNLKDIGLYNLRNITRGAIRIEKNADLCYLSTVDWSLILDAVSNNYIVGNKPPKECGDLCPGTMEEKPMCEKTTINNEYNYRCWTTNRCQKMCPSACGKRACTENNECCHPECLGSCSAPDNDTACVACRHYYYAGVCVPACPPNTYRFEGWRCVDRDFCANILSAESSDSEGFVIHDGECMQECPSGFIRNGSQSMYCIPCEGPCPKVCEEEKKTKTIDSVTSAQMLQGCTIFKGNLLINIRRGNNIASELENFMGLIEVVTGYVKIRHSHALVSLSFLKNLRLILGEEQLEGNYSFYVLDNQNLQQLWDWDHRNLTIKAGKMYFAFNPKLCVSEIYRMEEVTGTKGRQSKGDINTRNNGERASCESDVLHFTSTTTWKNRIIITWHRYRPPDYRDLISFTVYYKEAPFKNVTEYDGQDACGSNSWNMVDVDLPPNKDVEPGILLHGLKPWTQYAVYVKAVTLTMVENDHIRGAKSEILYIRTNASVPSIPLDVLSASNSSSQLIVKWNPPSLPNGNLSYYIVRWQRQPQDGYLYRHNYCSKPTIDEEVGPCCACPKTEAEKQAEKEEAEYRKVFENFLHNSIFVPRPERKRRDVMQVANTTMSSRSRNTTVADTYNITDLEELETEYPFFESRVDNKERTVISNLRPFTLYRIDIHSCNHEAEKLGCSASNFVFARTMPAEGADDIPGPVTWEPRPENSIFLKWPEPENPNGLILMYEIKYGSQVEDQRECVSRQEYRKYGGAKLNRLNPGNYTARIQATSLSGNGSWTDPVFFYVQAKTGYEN

B1: chimeric 9F2-IgG (antibody, V domains shown)
VH: QIQLVQSGPELKKPGETVKISCKASGYTLANYGMNWVKQAPGKGFKWMGWINTNTGKPTYSDEFKGRFVFSLETSASTAYLLINNLSNEDTATYFCARSIYYYGSRYFNVWGAGTT
VL: DIQMTQSTSSLSASLGDRVTISCRASQDINNYLTWYQQKPDGTVKLLIYYTSRLHSGVPSRFSGSGSGTDYSLTITNLEQEDFATYFCQQGNTLPWTFGEGTKVEIKR
notes: also called human chimeric 9F2
With B1 the Kd (cynomolgus-monkey IGF-1R [1]) was 0.17 nM.

B2: chimeric 9F2: human chimeric version of murine 9F2, human IgG1 (antibody, V domains shown)
VH: QIQLVQSGPELKKPGETVKISCKASGYTLANYGMNWVKQAPGKGFKWMGWINTNTGKPTYSDEFKGRFVFSLETSASTAYLLINNLSNEDTATYFCARSIYYYGSRYFNVWGAGTT
VL: DIQMTQSTSSLSASLGDRVTISCRASQDINNYLTWYQQKPDGTVKLLIYYTSRLHSGVPSRFSGSGSGTDYSLTITNLEQEDFATYFCQQGNTLPWTFGEGTKVEIKR
For B2, the “binding to human versus cyno IGF-1R” value (cynomolgus-monkey IGF-1R [2]) was “comparable for human and cyno IGF-1R”, the “comparison of inhibitory effect on MCF7 proliferation / viability” value (MCF7 cells) was “equivalent at decreasing the MCF7 cell viability” and the IGF-1R down-regulation (IGF-1R [3]) was “rapidly down-regulated and reached maximal reduction by eight hours”.

B3: 2B4: mouse monoclonal anti-IGF-1R antibody from hybridoma 2B4.2.8, ATCC PTA-7009 (antibody, V domains shown)
VH: QIQLVQSGPELKKPGETVKISCKASGYNLANYGLNWVKQAPGEGLKWMGWINTNTGAPTYAEEFKGRFVFFLETSASTAYLQINNLSDEDTATYFCARSIYYYASRYFNVWGAGTS
VL: DIQMTQTTSSLSASLGDKVTISCRASQDISNYLNWYQQKPDGTIKLLIYYTSRLHSGIPSRFSGSGSGTDYSLTISNLEQEDIATYFCQQGNTLPWTFGGGTKVEIKR
With B3 the “inhibition of IGF-I or IGF-II binding to IGF-1R” value (human IGF-1R-ECD) was “most potent group”, the “inhibition of IGF-I/II-mediated IGF-1R phosphorylation (KIRA)” value (IGF-1R [4]) was “most effective group” and the “inhibition of IGF-I-mediated AKT activation” value ([5]; serum-starved MCF7, IGF-I 50 ng/ml) was “potently prevented AKT activation”. The “inhibition of IGF-II-mediated IGF-1R phosphorylation and downstream AKT and MAPK1/2 activation” value ([5]; serum-starved MCF7, IGF-II 100 ng/ml) was “remained as strong inhibitors”.

B4: chimeric 10H5: human chimeric version of murine 10H5, human IgG1 (antibody, V domains shown)
VH: QVQLQQPGAELVKPGASVTLSCKASGYTFTRFWIHWVKQRPGQGLEWIGEINPSNGRTNYNENFKNKATLTVDTSSSTAYMQLSSLTSEVSVVYYCARGGRLDQWGQGTT
VL: DIVMTQSQKFMSTSLGDRVSVTCKASQNVGSNVAWYQQKPGQSPEALIYSASYRYSGVPDRFTGSGSGTDFTLTISNVQSEDLAEYFCHQYNNYPYTFGGGTKVEIKR
For B4, the “binding to human versus cyno IGF-1R” value (cynomolgus-monkey IGF-1R [2]) was “comparable for human and cyno IGF-1R”, the “comparison of inhibitory effect on MCF7 proliferation / viability” value (MCF7 cells) was “equivalent at decreasing the MCF7 cell viability” and the IGF-1R down-regulation (IGF-1R [3]) was “rapidly down-regulated and reached maximal reduction by eight hours”.
